Assay results taken from US6960559.

Tested on: T1, cbz-FAF[125I]Y-NH2
T1 sequence: FAFY

B1: papain (enzyme, UniProt P00784 134-345, looked up)
Papain: IPEYVDWRQKGAVTPVKNQGSCGSCWAFSAVVTIEGIIKIRTGNLNEYSEQELLDCDRRSYGCNGGYPWSALQLVAQYGIHYRNTYPYEGVQRYCRSREKGPYAAKTDGVRQVQPYNEGALLYSIANQPVSVVLEAAGKDFQLYRGGIFVGPCGNKVDHAVAAVGYGPNYILIKNSWGTGWGENGYIRIKRGTGNSYGVCGLYTSSFYPVKN
Amount necessary to degrade 50% of substrate in 30 min: 2 µg
